Assay in all cases: SPR (Biacore), KD of SG1 / KD of variant;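 note: relative to parent M103205H795-SG1 carrying the SG1 human heavy chain constant region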
Assay [1] concerns the target T1, cynomolgus monkey FcγRIIa2 extracellular domain, C-terminal His-tag (cynomolgus monkey).
T1 construct: also called cyno FcγRIIa2; cynoFcgRIIa2; not shown: His-tag added to C-terminus
T1 chain: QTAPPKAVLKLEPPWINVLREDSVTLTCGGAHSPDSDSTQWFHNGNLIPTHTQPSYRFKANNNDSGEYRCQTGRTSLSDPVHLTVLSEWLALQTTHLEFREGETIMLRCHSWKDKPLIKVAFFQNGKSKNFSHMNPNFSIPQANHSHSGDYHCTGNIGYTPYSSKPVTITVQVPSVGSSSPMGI

For assay [2], the target named is T2, human FcγRIIaH extracellular domain, C-terminal His-tag (human, UniProt P12318 34-217).
T2 construct: also called human FcγRIIa (type H); FcgRIIaH; not shown: His-tag added to C-terminus
T2 sequence: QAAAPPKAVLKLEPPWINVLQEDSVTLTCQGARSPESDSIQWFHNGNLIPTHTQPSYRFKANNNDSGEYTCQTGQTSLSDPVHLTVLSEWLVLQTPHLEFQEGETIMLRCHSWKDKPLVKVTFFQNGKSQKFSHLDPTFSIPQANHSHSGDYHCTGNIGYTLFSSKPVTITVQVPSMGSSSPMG

In assay [3] the target is T3, cynomolgus monkey FcγRIIb extracellular domain, C-terminal His-tag (cynomolgus monkey).
T3 construct: also called cyno FcγRIIb; cynoFcγRIIb; not shown: His-tag added to C-terminus
T3 chain: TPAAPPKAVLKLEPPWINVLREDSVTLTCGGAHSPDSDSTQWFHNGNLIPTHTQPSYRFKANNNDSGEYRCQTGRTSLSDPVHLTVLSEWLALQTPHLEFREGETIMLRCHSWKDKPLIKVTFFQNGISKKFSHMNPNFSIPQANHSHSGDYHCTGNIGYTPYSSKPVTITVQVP

In assay [4] the target is T4, human FcγRIIIaV extracellular domain, C-terminal His-tag (human, UniProt P08637 17-208).
T4 construct: also called FcgRIIIaV; not shown: His-tag added to C-terminus

The target of assay [5] is T5, cynomolgus monkey FcγRIIa3 extracellular domain, C-terminal His-tag (cynomolgus monkey).
T5 construct: also called cyno FcγRIIa3; cynoFcgRIIa3; not shown: His-tag added to C-terminus
T5 chain: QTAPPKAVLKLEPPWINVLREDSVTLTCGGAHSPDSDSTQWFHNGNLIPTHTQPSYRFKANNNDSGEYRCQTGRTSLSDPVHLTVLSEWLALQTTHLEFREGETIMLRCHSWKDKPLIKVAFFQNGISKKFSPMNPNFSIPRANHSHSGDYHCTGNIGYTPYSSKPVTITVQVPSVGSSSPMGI

In assay [6] the target is T6, human FcγRIIb extracellular domain, C-terminal His-tag (human, UniProt P31994 43-217).
T6 construct: also called FcgRIIb (human); not shown: His-tag added to C-terminus
T6 sequence: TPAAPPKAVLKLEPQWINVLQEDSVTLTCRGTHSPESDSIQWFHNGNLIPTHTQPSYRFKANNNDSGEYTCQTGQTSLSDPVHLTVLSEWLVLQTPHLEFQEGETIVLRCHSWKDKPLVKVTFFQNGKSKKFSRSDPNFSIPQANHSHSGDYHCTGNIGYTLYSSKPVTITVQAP

Assay [7] addresses T7, cynomolgus monkey FcγRIIa1 extracellular domain, C-terminal His-tag (cynomolgus monkey).
T7 construct: also called cyno FcγRIIa1; cynoFcgRIIa1; not shown: His-tag added to C-terminus
T7 chain: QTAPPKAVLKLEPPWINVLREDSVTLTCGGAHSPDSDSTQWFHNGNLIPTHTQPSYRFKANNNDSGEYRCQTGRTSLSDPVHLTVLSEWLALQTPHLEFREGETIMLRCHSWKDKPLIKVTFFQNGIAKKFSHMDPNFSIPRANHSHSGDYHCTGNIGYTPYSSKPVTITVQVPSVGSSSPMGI

For assay [8], the target named is T8, human FcγRIIaR extracellular domain, C-terminal His-tag (human, UniProt P12318 34-217).
T8 construct: also called human FcγRIIa (type R); FcgRIIaR; not shown: His-tag added to C-terminus
T8 chain: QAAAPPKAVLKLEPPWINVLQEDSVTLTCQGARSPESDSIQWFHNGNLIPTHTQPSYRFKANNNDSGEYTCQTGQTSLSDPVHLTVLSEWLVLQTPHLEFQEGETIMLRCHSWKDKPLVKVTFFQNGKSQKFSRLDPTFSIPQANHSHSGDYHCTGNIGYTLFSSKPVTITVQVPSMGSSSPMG

T4 sequence (P08637 17-208 F176V): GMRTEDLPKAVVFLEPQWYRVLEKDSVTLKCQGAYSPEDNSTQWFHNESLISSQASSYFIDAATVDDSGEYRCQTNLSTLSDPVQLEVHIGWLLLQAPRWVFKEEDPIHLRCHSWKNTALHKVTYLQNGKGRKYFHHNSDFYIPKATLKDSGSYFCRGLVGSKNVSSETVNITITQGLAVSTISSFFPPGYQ

B1: M103205H795-MY318/M103202L889-SK1 (antibody, human IgG1, kappa)
heavy: QVTLKESGPVLVKPTETLTLTCTVSGIDLSHDDISWVRQAPGKGLEWVGIISYAGSTYYASWAKGRLTISKDTSKNQVVLTMTNMDPVDTATYYCARGVPAYSHGGDLWGQGTLVTVSSASTKGPSVFPLAPSSKSTSGGTAALGCLVKDYFPEPVTVSWNSGALTSGVHTFPAVLQSSGLYSLSSVVTVPSSSLGTQTYICNVNHKPSNTKVDKKVEPKSCDKTHTCPPCPAPELLLGPSVFLFPPKPKDTLMISRTPEVTCVVVDVSEEDPEVKFNWYVDGVEVHNAKTKPREEQYNSTYRVVSVLTVLHQDWLNGKEYKCKVSNTALPKPIEKTISKAKGQPREPQVYTLPPSREEMTKNQVSLTCLVKGFYPSDIAVEWESNGQPENNYKTTPMVLDSDGSFFLYSKLTVDKSRWQQGNVFSCSVMHEALHNHYTQKSLSLSP
light: DIVMTQSPATLSLSPGERATLSCTSSQSVYHANWLSWFQQKPGQPPKLLIYWASTLAYGVPSRFSGSGSGTDFTLTISSLQPEDAATYYCAGGYGGGRYAFGQGTKVEIKRTVAAPSVFIFPPSDEQLKSGTASVVCLLNNFYPREAKVQWKVDNALQSGNSQESVTEQDSKDSTYSLSSTLTLSKADYEKHKVYACEVTHQGLSSPVTKSFNRGEC
In the case of B1, the “KD fold (SG1 = 1)” value in assay [1] was 0.7 fold; in assay [2] it was 0.6 fold; in assay [3], 0.8 fold; in assay [4], 0.05 fold; in assay [5], 0.5 fold; in assay [6], 1 fold. In addition, the “KD fold (SG1 = 1)” value turned out to be 0.4 fold in assay [7] and 0.8 fold in assay [8].

B2: M103205H795-MY321/M103202L889-SK1 (antibody, human IgG1, kappa)
heavy: QVTLKESGPVLVKPTETLTLTCTVSGIDLSHDDISWVRQAPGKGLEWVGIISYAGSTYYASWAKGRLTISKDTSKNQVVLTMTNMDPVDTATYYCARGVPAYSHGGDLWGQGTLVTVSSASTKGPSVFPLAPSSKSTSGGTAALGCLVKDYFPEPVTVSWNSGALTSGVHTFPAVLQSSGLYSLSSVVTVPSSSLGTQTYICNVNHKPSNTKVDKKVEPKSCDKTHTCPPCPAPELLHGPSVFLFPPKPKDTLMISRTPEVTCVVVDVSDEDPEVKFNWYVDGVEVHNAKTKPREEQYNSTYRVVSVLTVLHQDWLNGKEYKCKVSNKALPKPIEKTISKAKGQPREPQVYTLPPSREEMTKNQVSLTCLVKGFYPSDIAVEWESNGQPENNYKTTPMVLDSDGSFFLYSKLTVDKSRWQQGNVFSCSVMHEALHNHYTQKSLSLSP
light: DIVMTQSPATLSLSPGERATLSCTSSQSVYHANWLSWFQQKPGQPPKLLIYWASTLAYGVPSRFSGSGSGTDFTLTISSLQPEDAATYYCAGGYGGGRYAFGQGTKVEIKRTVAAPSVFIFPPSDEQLKSGTASVVCLLNNFYPREAKVQWKVDNALQSGNSQESVTEQDSKDSTYSLSSTLTLSKADYEKHKVYACEVTHQGLSSPVTKSFNRGEC
Take B2: the “KD fold (SG1 = 1)” value in assay [1] was 2.3 fold; in assay [2], 3.7 fold; in assay [3], 2.8 fold; in assay [4], 0.74 fold; in assay [5] it was 3.9 fold; in assay [6] it was 1.8 fold. In addition, the results for the “KD fold (SG1 = 1)” value in assay [7] and in assay [8] were 1.4 fold and 2.9 fold, respectively.
